Substitutions are numbered along the chain they refer to. No end group written: not given here.
B1: NCAM(20-208) first mutant: Glu-30, Glu-35 and Lys-37 substituted with Ala (receptor, UniProt P13596 20-208, looked up)
chain: LQVDIVPSQGAISVGASAFFLCQVAGDAKDKDISWFSPNGEKLSPNQQRISVVWNDDDSSTLTIYNANIDDAGIYKCVVTAEDGTQSEATVNVKIFQKLMFKNAPTPQEFKEGEDAVIVCDVVSSLPPTIIWKHKGRDVILKKDVRFIVLSNNYLQIRGIKKTDEGTYRCEGRILARGEINFKDIQVIV
B2: NCAM(20-208) second mutant: Arg-192, Arg-196 and Glu-198 substituted with Ala (receptor, UniProt P13596 20-208, looked up)
chain: B1 chain with A11E, A16E, A18K, R173A, R177A, E179A
B3: NCAM(20-208) third mutant: Glu-30, Glu-35, Lys-37, Arg-192, Arg-196 and Glu-198 substituted with Ala (receptor, UniProt P13596 20-208, looked up)
chain: B1 chain with R173A, R177A, E179A
B4: C3d, tetrameric dendrimer of the C3 peptide (peptide)
peptide: ASKKPKRNIKA
modifications: also: tetrameric dendrimer: four monomers coupled to a backbone of three lysines, synthesised on Rink amide linker
notes: Immobilised on a CM5 sensor chip in the BIAlite experiment; also called dendrimer peptide C3d
B5: D3d, tetrameric dendrimer of the D3 peptide (peptide)
peptide: AKKERQRKDTQ
modifications: also: tetrameric dendrimer: four monomers coupled to a backbone of three lysines, synthesised on Rink amide linker
notes: Immobilised on a CM5 sensor chip in the BIAlite experiment; also called dendrimer peptide D3d
B6: D4d, tetrameric dendrimer of the D4 peptide (peptide)
peptide: ARALNWGAKPK
modifications: also: tetrameric dendrimer: four monomers coupled to a backbone of three lysines, synthesised on Rink amide linker
notes: Immobilised on a CM5 sensor chip in the BIAlite experiment; also called dendrimer peptide D4d
B7: Ig1: Recombinant Ig1 domain of rat NCAM produced in Pichia pastoris (protein)
chain: LQVDIVPSQGEISVGESKFFLCQVAGDAKDKDISWFSPNGEKLSPNQQRISVVWNDDDSSTLTIYNANIDDAGIYKCVVTAEDGTQSEATVNVKIFQ

Biological target: the molecule itself
Assay: gel filtration chromatography, homophilic dimer formation
Conditions: not given

Molecule | binding result
B1 | no binding
B2 | no binding
B3 | no binding

biological target: T1, recombinant NCAM Ig1 domain produced in Pichia pastoris (Ig1 PP) (rat, UniProt P13596 20-116, limits assumed); assay: one-bead one-peptide library stained with biotinylated NCAM Ig1; conditions: not given
T1 construct: domain: Ig1; unlabelled analyte in the BIAlite experiment; also called NCAM Ig1-PP
Method: The synthesis of the resin-bound one-bead one-peptide library was performed using the portioning, mix procedure (Furka et al., 1991). Polyethylene syringes served as reaction vessels throughout the synthesis and the final TFA-deprotection. TentaGel resin (Rapp Polymere, Tübingen, Germany) was divided into 18 aliquots and the protein L-amino acids except cysteine and histidine were used. Side-chains were protected with the following protecting groups: Asp(tBu), Glu(tBu), Tyr(tBu), Ser(tBu), Thr(tBu), Asn(trt), Gln(trt), Lys(Boc), Trp(Boc), Arg(pmc). Fmoc-protected amino acids (5 eq; Milligen or Novabiochem) were coupled overnight using 5eq DIC and 5eq HOBt. Removal of the Fmoc group was accomplished with 25% piperidine in DMF for 20 min. The side chain protecting groups were removed with […], 5% anisole, 5% H₂O, 5% EDT, 2.5% thioanisole at mom temperature for 2.5 h followed by washing with tetrahydrofuran and 1% HOAc and the resin was subsequently lyophilised. Screenings were done by incubating 2 ml resin (equivalent to ca. 10⁶ beads) with biotinylated receptor in Tris/HCl buffer (Tris/HCl 0.025 M, pH 7.2, 0.25 M NaCl, 0.1 % (w/v) Tween 20) containing 0.1% Gelatin (Sigma) for 60 min. Subsequently the resin was washed in Tris/HCl buffer and incubated with avidin-alkaline phosphatase (diluted 1:20000) for 30 min. The substrates BCIP/NBT (Sigma) were added as described by Lam et al. (1992) and stained beads were removed for micro sequencing. The library was screened with the receptor NCAM Ig1-PP (10 mg/ml).

Molecule | binding result
ARALNWGAKPK [D4 peptide (SEQ ID NO:3)] | binds
AGSAVKLKKKA [SEQ ID NO 4] | binds
AKYVLIPIRIS [SEQ ID NO 5] | binds
ASTKRSMQGI [SEQ ID NO 6] | binds
AYYLIVRVNRI [SEQ ID NO 8] | binds
ATNKKTGRRPR [SEQ ID NO 9] | binds
AKRNGPLINRI [SEQ ID NO 10] | binds
AKRSVQKLDGQ [SEQ ID NO 11] | binds
ARQKTMKPRRS [SEQ ID NO 12] | binds
AGDYNPDLDR [SEQ ID NO 13] | binds
ARKTRERKSKD [SEQ ID NO 14] | binds
ASQAKRRKGPR [SEQ ID NO 15] | binds
APKLDRMLTKK [SEQ ID NO 16] | binds
AKKEKPNKPND [SEQ ID NO 17] | binds
AQMGRQSIDRN [SEQ ID NO 18] | binds
AEGGKKKKMRA [SEQ ID NO 19] | binds
AKKKEQKQRNA [SEQ ID NO 20] | binds
AKSRKGNSSLM [SEQ ID NO 21] | binds
ARKSRDMTAIK [SEQ ID NO 22] | binds
ASKKPKRNIKA [C3 peptide (SEQ ID NO:1)] | binds
AKKERQRKDTQ [D3 peptide (SEQ ID NO:2)] | binds

biological target: T1, recombinant NCAM Ig1 domain produced in …; assay: SPR (BIAlite), dendrimer peptide immobilised on CM5 chip, Ig1 in solution; conditions: not given
Method: Real-time biomolecular interaction analysis was performed using a BIAlite instrument (Pharmacia Biosensor AB, Sweden). All experiments were performed at 25° C. using Hepes buffered saline (HBS: 10 mM Hepes pH 7.4, 150 mM NaCl, 3.4 mM EDTA, 0.005% v/v Surfactant P20 (Pharmacia Biosensor, Sweden) as running buffer. The flow rate was […]. Dendrimer peptides C3d, D3d and D4d (four peptide-monomers coupled to a backbone consisting of three lysines) were immobilised on a sensor chip CM5 (Pharmacia Biosensor AB, Sweden) using the following procedure: the chip was activated by […] 0.05 M N-hydroxysuccinimide, 0.2 M N-ethyl-N′-(dimethylaminopropyl)carbodiimide; peptides were immobilised using […] peptide solution in HBS at a concentration of 60 μg/ml; finally the chip was blocked by 35 μl 1 M ethanolamine hydrochloride pH 8.5. Binding of Ig1 to dendrimer peptides: […] of Ig1 or Ig1I at the indicated concentrations were applied. The chip was regenerated by two […] pulses of 5 mM NaOH. Two independent experiments were performed. The results confirmed that C3d, D3d and D4d bind to the NCAM Ig1 domain.

Molecule | binding result
B4 | binds
B5 | binds
B6 | binds

test system: Hippocampal cells; assay: Aggregate cell cultures of hippocampal cells (aggregates counted after 24 h); type: cell-based, rat; conditions: ligand present during the aggregation of cells; quantified 24 h after seeding
Method: A variety of suitable fragments and variants of NCAM has been discussed above. To be able to identify candidate ligands capable of stimulating NCAM function, where the NCAM function means the function of the NCAM molecule, the inventors have established a simple cell culture system (aggregate cell cultures) that permits a quantitative evaluation of the effect of various ligands. Hippocampal cells are provided from rat embryos. The cells are grown in a defined medium and dissociated cells are seeded in microtiter plates. After 24 h, the, amount of aggregates are counted. Compounds to be tested are added to the cell suspension immediately before seeding of the cells in micro-wells. When NCAM Ig1 binding ligands are present during the aggregation of cells, smaller, but more numerous cell aggregates are seen when quantified 24 h after seeding of the cells. The inhibiting effect of the ligands results in a blockage of the formation of large aggregates from many small aggregates as the adhesion, properties of NCAM are blocked. Thus, small but more numerous cell aggregates are seen in the presence of active ligands.

Molecule | inhibition of aggregation of hippocampal cells
AKKERQRKDTQ (listed as Homo sapiens) [D3] | inhibited aggregation
ARALNWGAKPK (listed as Homo sapiens) [D4] | inhibited aggregation
GEISVGESKFFL (listed as Homo sapiens) [Ig1-p] | inhibited aggregation
GRILARGEINFK (listed as Homo sapiens) [Ig2-p] | inhibited aggregation
B7 | inhibited aggregation

Reference: patent publication US20070116702A1, “Survival promoting NCAM binding and MCAM ligand binding compounds” (priority 2001, published 2007)
